Consider two molecules from paper PMC5064212, “HigB of Pseudomonas aeruginosa Enhances Killing of Phagocytes by Up-Regulating the Type III Secretion System in Ciprofloxacin Induced Persister Cells”.

This data set addresses HigA-His (Pseudomonas aeruginosa PA14, UniProt A0A0H2ZHN2 1-101). Put plainly: EMSA; 0, 4 or 20 nM HigA, 300 ng DNA, 5 mM Ca2+. Particulars: protein: recombinant; tags: His (6xHis with Gly-Gly linker at C-terminus per higA cloning primer S4); chain copies: 2; label: none (ethidium bromide stain); blunt.

B1: 38-bp higB-higA promoter fragment (dsDNA)
DNA 1: CTGTAGTGAAGTTAACGCTTAACGTTAAGGGTTAATGA
DNA 2: TCATTAACCCTTAACGTTAAGCGTTAACTTCACTACAG
As for B1, the binding result is listed as “binds”.

B2: 38-bp fragment with scrambled palindrome (EMSA-(M)) (dsDNA)
DNA 1: CTGTAGTGAAGTCTAGACTTAAGCATATGGGTTAATGA
DNA 2: TCATTAACCCATATGCTTAAGTCTAGACTTCACTACAG
In the case of B2, the binding result is recorded as “no binding”.
